{
  "source": "paper PMC5121336",
  "about": "(2016)",
  "binders": {"B1": {"name": "LDLR^ecto-(His)6 (domain or fragment)", "chain": "not shown"}},
  "target": "human LDL (low-density lipoprotein) (human)",
  "sequence (P04114 28-4563)": "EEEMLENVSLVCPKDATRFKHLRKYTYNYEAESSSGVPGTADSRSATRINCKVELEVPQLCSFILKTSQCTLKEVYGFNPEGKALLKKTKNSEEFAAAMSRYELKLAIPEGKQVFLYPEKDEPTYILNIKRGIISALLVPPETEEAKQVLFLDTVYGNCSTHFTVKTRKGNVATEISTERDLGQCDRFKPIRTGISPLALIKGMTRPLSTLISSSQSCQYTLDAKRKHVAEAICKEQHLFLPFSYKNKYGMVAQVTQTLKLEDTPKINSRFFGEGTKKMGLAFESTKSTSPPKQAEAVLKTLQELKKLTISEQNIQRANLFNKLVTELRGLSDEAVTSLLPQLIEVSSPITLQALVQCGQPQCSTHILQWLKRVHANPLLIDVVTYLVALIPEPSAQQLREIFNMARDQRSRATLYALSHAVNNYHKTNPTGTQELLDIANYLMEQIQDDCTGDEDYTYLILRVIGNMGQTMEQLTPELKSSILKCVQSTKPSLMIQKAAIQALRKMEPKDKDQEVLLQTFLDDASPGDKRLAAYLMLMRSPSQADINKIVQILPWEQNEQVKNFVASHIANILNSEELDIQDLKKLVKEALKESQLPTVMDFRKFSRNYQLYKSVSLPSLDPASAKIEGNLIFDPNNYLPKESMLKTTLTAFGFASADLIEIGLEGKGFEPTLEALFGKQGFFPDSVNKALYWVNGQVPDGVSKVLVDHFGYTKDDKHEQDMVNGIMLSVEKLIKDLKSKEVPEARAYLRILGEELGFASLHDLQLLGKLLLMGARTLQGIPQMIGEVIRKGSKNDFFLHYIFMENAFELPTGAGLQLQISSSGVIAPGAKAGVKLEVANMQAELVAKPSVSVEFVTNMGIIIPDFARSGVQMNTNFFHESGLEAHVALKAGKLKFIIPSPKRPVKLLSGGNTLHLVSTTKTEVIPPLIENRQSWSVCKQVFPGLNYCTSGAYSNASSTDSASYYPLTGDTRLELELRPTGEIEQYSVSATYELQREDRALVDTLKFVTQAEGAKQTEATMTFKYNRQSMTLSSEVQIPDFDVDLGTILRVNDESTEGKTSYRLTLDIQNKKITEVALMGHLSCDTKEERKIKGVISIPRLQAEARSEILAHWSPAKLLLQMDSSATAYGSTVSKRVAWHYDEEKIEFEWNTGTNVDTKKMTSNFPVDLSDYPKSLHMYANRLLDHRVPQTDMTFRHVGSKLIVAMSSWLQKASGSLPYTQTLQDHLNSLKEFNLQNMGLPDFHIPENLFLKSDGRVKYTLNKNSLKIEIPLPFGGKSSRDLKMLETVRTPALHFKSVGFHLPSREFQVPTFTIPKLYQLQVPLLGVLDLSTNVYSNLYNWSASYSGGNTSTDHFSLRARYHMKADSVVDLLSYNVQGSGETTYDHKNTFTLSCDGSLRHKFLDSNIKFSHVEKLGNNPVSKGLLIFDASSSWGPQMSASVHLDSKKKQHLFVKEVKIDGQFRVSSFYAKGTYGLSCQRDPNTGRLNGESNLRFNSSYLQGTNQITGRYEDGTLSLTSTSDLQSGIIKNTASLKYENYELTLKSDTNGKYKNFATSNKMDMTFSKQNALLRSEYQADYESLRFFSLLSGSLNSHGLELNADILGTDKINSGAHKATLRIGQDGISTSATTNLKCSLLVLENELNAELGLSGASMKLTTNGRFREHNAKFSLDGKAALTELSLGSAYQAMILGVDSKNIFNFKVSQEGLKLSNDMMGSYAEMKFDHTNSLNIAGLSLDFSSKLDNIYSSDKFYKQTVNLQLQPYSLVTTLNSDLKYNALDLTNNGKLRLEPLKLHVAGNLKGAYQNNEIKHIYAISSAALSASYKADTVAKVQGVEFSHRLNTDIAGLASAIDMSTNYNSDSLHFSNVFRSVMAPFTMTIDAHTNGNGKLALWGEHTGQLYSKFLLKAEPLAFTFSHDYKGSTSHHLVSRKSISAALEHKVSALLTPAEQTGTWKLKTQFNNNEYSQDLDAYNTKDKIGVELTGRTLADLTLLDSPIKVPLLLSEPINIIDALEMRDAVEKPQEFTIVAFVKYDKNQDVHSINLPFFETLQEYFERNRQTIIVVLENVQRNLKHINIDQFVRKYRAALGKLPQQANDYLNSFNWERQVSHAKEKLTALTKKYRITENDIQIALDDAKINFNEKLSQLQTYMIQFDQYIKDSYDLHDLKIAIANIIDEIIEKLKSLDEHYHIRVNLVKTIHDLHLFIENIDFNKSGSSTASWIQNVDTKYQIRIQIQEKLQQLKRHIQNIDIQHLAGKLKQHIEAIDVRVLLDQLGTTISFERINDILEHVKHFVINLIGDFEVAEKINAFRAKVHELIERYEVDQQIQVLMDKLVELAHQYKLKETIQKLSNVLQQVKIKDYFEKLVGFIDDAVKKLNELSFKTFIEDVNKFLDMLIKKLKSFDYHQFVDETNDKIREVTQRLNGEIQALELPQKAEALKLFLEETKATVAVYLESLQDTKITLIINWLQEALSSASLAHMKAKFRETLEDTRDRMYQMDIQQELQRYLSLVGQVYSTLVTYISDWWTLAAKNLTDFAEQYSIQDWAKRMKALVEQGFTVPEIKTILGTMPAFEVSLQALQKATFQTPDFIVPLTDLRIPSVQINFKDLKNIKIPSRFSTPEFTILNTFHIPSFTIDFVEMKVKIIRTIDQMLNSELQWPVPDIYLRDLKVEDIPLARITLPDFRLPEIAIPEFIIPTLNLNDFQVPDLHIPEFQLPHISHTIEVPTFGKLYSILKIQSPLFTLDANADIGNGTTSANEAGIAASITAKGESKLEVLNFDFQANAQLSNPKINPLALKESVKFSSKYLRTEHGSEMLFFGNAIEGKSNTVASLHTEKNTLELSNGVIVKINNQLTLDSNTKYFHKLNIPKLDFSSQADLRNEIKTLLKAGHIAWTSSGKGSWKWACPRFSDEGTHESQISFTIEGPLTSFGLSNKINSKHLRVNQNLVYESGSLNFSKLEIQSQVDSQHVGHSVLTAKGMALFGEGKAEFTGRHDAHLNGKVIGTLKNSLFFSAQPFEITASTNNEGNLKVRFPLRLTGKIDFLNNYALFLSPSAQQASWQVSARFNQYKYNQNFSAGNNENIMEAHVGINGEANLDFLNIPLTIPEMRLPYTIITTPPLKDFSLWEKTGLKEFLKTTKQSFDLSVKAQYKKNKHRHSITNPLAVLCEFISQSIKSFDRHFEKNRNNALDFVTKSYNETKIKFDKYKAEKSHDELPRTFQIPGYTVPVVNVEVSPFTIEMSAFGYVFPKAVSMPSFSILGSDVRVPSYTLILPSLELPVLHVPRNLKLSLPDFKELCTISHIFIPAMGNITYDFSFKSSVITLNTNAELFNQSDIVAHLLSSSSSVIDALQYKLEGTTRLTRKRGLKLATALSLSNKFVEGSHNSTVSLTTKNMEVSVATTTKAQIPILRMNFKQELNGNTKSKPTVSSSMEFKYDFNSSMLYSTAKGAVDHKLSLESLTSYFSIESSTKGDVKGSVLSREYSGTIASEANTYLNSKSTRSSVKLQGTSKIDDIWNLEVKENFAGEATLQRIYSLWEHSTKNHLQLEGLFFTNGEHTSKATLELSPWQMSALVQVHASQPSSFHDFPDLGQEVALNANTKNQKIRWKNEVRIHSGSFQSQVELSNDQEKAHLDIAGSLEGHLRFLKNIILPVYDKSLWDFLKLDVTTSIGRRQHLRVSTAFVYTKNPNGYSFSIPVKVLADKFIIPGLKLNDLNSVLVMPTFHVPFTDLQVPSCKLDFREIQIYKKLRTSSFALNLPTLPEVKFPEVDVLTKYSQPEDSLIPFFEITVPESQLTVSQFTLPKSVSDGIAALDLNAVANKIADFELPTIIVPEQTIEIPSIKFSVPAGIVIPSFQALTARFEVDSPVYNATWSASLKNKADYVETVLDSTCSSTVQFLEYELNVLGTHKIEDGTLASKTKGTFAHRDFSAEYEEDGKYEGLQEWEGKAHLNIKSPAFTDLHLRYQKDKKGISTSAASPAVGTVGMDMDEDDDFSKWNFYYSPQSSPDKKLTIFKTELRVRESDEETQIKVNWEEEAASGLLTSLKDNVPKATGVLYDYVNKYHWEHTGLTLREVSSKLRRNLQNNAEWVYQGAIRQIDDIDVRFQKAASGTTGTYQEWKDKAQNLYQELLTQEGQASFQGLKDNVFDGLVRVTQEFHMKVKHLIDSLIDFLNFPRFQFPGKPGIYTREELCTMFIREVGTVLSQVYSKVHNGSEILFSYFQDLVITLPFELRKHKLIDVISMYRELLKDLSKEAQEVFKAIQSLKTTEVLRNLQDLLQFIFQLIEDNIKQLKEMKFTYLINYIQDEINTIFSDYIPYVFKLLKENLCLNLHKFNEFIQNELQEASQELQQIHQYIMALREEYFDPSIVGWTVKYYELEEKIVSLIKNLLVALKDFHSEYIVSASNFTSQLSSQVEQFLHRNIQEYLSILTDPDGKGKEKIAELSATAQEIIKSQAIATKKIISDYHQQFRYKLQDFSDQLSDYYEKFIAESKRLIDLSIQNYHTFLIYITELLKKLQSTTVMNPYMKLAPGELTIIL",
  "test": "SPR; LDL saturated with ALK1ecto",
  "data": [
    {"binder": "B1", "values": [
      {"measurement": "Kd", "result": 2, "unit": "nM"}
    ]}
  ]
}
